# Test results published in the DeepSol protein solubility set.
# Assay: soluble on expression in E. coli; label from the status in PepcDB or PDB records
row,Sequence,soluble on expression in E. coli
1,DAPLPHLRFALASCANWEAGFFAAYGDIARRADAGELEMLIFLGDYIYEYATGMFAGKDGVVRPHQPLHETITLEHYRTRYGHYRSDNHLQAAHAALPWIVMWDDHESANNSNREGAQNHSADEGSWVDRQNAARQVFLEWMPIRQEDTLYRSFTFGDLATLSLLDLRSFRDPAPSQQQWLEGQRADTMMGSQQFEWLKSNVEHTTTTWNIIGSSVMFAPMAITGQPLFQIPEPIPANLDQWDGYSRERDRLLAVLADFATPTLFLSGDIH,not soluble
2,MRVRNIQGEDYVKIYSVLNDWWGGRDMAVMLPKLFFIHFQETSFIIEEEGETLGFLCGFFSQTHKEEAYVHFIGVNPKYRRRGIASTLYSYFFDVARANNRKVVKAITSPVNKKSIQFHREIGFQIEAGDDEIEGVSVHTNYDGNGGSRVLFLKNV,not soluble
3,MNIKYSGIENRFETAILKKNGVRSGFVSFAPNLAAVKLNDYAKVRKRITKTKQKADIVIVMFHGGAEGKQAEHLPFDTEIFYGENRGNVVEFARLAVDSGADVVFGQGPHVTRAVELYRDRFISYSGGNFATYGAINTSGISGIAPIFKIITDKQGRFVSGNIIPITQVGDKIPKIDPEKTVIGRIIYLNRSDFPKGNGLDVSPDGSITRR,not soluble
4,MGSDKIHHHHHHMSGPQGRLAIIAGSGMLPVYVAEAARAAGEDPFILPLKNEADQRWDGFQSAVIGVGDMAGLSSLIKRHGIKRVVMSGGVKKRPNFKEIHVNLRFLVKLPFAVKTLLSGGDDAVLKMVIQLIESQGCRVVGAHEIAPQLLAELGPLGSSRPTDDDRRDIAAAAKAADALGRLDVGQGAVSVGGRIVALEGVEGTDRMLQRVAELRSEGRISSRRSGVLVKLCKPQQDIRADLPTIGQSTIENAARAGLSGIAVQAGRALLLQRQETLRQADAAGIFISGIELAPEGEAWLS,not soluble
5,MGSSHHHHHHSSGLVPRGSHMEELQKSIGHKPEPTDEEWELIKTVTEAHVATNAQGSHWKQKRKFLPEDIGQAPIVNAPEGGKVDLEAFSHFTKIITPAITRVVDFAKKLPMFCELPCEDQIILLKGCCMEIMSLRAAVRYDPESETLTLNGEMAVTRGQLKNGGLGVVSDAIFDLGMSLSSFNLDDTEVALLQAVLLMSSDRPGLACVERIEKYQDSFLLAFEHYINYRKHHVTHFWPKLLMKVTDLRMIGACHASRFLHMKVECPTELFPPLFLEVFED,soluble
6,ESSVNPVVLDFEDGTVMSFGEAWGDSLKCIKKVSVSQDLQRPGNKYALRLDVEFNPNNGWDQGDLGTWIGGVVEGQFDFTGYKSVEFEMFIPYDEFSKSQGGFAYKVVINDGWKELGSEFNITANAGKKVKINGKDYTVIHKAFAIPEDFRTKKRAQLVFQFAGQNSNYKGPIYLDNVRIRPEDA,soluble
7,MVDVIVIGAGIGGLTAAALLQERGFSTVVFEKNRFPGGSCSSFEKGGYTFDAGASVFYGFCDDDAMGTLNLHSRIFRKLGIAVETIPDPVQIHYHMPGGFDVPAWFDRDRFLESLCRRFPHERTGIRKFYDELESVYEILNSLPAGSLEDVIHLGVVGARHPLKVMALGVKTLFSMGNVARRYISDKELLRFIDLEAYSWAVQDAVSTPLVNAGICLADRHHGGINYPVGGSGTIPAALVKGFEKFGGSIRFGSEVSKVIVKNGSAVGVRLSDGTEVSAKAVVSNATVWDTFSKLVDDPRLRIPDDRFIKAPSWFQIWLGVDGSIVPPGFHMHHIIVDDWSKYDELGGTIYFSAPSVLDPSLAPPGKHALHLFVTAETWQWEQYEYRSQEYKAAKEAFAKSLIARAERLLPGIQDATELMVTATPQSHARYLNRRDGSYGPLLKPGQNILLKPQNRTPIKNLFAAGDSTFPGQGVIAVTYSGVSCASYIARQLGKALDYLLEHHHHHH,not soluble
8,MGSDKIHHHHHHMPTGNELPINEGASALQMANTIFGPGVTVNTASYTGWSQSSGIYTNGDSVAPGVTPSDTGVILSTGRASHITQSNGDPNRSDSTSTNTPGPSNDPDFNAIAGFVGSNDASFLEVNFTPTTDVLTMQFTFASEEYPEYTGSVFNDIFGVWVNGALVASPVVNVTQINSVNQSENATLFNNNTDDDYNTEMDGFTVTLTLVMPVNINQPNDIKIGVADVADSAYDSNVLIAAGSIQGEFVAESDSITHLEGLTSVLDVLANDPTSGGIAFITHINGVEVNPGDSVTLSDGTIVTLLPSGELQIDPPATQTGLTSSETIHFTYTVDNGSGITDTAFVTVTAIPCFARGTMILTAHGEKPVETLVPGDRIATRDNGLQEIRWIGTRKVAAEGRFAPIAIEAGTFGMHRRLVVSPQHRVMLTHWMAEVMFGEDEVLVAAKDLVNDCSVRVLGPGDFDDGEVEYFHLLFDQHQIIFSDGLATESFLPGPTVMNDLDAAVQEEVLALFPDIDPDTKDGYGPAARLPLRAFEARAMLA,not soluble
9,MASPRELTQNPLKKIFMPYSNGRPALHASQRGVCMTNCPTLIVMVGLPARGKTYISKKLTRYLNFIGVPTREFNVGQYRRDMVKTYKSFEFFLPDNEEGLKIRKQCALAALNDVRKFLSEEGGHVAVFDATNTTRERRAMIFNFGEQNGYKTFFVESICVDPEVIAANIVQVKLGSPDYVNRDSDEATEDFMRRIECYENSYESLDEEQDRDLSYIKIMDVGQSYVVNRVADHIQSRIVYYLMNIHVTPRSIYLCRAGESELNLKGRIGGDPGLSPRGREFSKHLAQFISDQNIKDLKVFTSQMKRTIQTAEALSVPYEQFKVLNEIDAGVCEEMTYEEIQDHYPLEFALRDQDKYRYRYPKGESYEDLVQRLEPVIMELERQENVLVICHQAVMRCLLAYFLDKAAEELPYLKCPLHTVLKLTPVAYGCKVESIFLNVAAVNTHRDRPQNVDISRPSEEALVTVPAHQ,soluble
10,EGKTSSASPNNPQELKRRVIEEGFRRAGIEFGGLKGNSLEALRQFGDPMMATVVGLSLGFKGDVVLAGGTQMLAVAAILKGLGEDLSRFMIATTRWVVEDKSATFIKTAREIGIISYAADLDFSKSEFKGLRDYEKGYVKEGVGAGGATWLAV,not soluble
11,DIELTQTPVSLAASLGDRVTISCRASQDINNFLNWYQQKPDGTIKLLIYYTSRLHAGVPSRFSGSGSGTDYSLTISNLEPEDIATYFCQHHIKFPWTFGAGTKLEIK,soluble
12,MIRLSEQSPLGTGRHRKCYAHPEDAQRCIKIVYHRGDGGDKEIRRELKYYAHLGRRLKDWSGIPRYHGTVETDCGTGYVYDVIADFDGKPSITLTEFAEQCRYEEDIAQLRQLLKQLKRYLQDNRIVTMSLKPQNILCHRISESEVIPVVCDNIGESTLIPLATWSKWCCLRKQERLWKRFIAQPALAIALQKDLQPRESKTLALTSREALEHHHHHH,not soluble
13,MGSDKIHHHHHHMHKHADFFSYLSDHFQHTYWVPGNHEWYNSDMADRSGMLHEKIKDNVSLVNNAAVEQDGVQLIFSTLWSQISPAFAFQISQGMSDFHVIKYKGKPFSVEQFNRQHEESVSFIQKALQQKYAATTVVVSHHIPTFQHYPQQYKGSVLSEAFATELYDLIEAASPDYWIYGHHHSNVPDFTIGNTQLLTNQLGYVKCGEHAGFDRGKCLFRRGGH,not soluble
14,GPGSMYVGCVGKDKHGDQIRSAAEADGTTMELEVSSDKRSGLCVVCRDGNSRTLVVHPSSASSLRDDFVSSAAAQEGQRSAKTVYTTAYASVVRVRQTLQLMTSSRCHTLPDGLKQLAAMGLANQRVLDDFGEGLVDVLGKLDIIIGNPEEMYDLAMMLQWVPSEMSDMVLAKKIATEMMCDRHGVRRVIMTRGAEPIIYAASAGESGEVPVVATCAHSAKLLATGAGDAFAGGFLAAMAAKPDDVAFCCRLSAQAATFMINHSLVTLRTDEACLAELQT,not soluble
15,MSLGVEGEMQSFMSDMGVQANVTGPSAYQGQSAGYYSMGSVWSRFPQKNIQPFNLQLPHARAGCGGIDLFAGSFSFINTAELVAMLKATANNALGFAFKLAIDTISPEIGKVMDELAQKVQQMNQMNISSCETAQALVGGLWPKSDTASSVICEAIANSQGAVSDWARARQQCNNGGQREALKSANSDPDMKEQAGMPNNYTWAALGKKYGGFDTQFREFLMTLVGTVIYDPAGNGGKPRVQFIGPADPALISAMLDGTSSTPHKYWSCGGDSAKCMAPSEIDMVIGPNAAIKARVRTLIESMALKVRDPGASLTPAEIQLLGMASVPVYKIITVSAAAEFGISAQEINDLSEIVAVDLVTTMTMRFIDMAVNARSDFNGADADSLREWREGLYETRRNFLGIAARTSQRFDQTFALIQRTQMLEKTLRTQLSPQMSAALRFSRTLGSQVQEGHHHHHH,not soluble
16,MGSDKIHHHHHHMIRYPVLKEGATIGVTAPSSGVPKDLHDLVKAACERMEERGFRVVCGETVWTQEKAKSSEAKKRATELQAMMEDDAIDLMIPPWGGQLLIEVLQFLDFEQWEPKWILGYSDTSLLLLAITLNTGIATAHGTNLVDLRGEYSDDTTAMWQPVLSTKIGDSIVQHSSKKYQKEWDFERPTPCVFHLTEKTKWQGVPKQTLSINGRLLGGCIDVIRHLIGTPYGDVTRFQADVIKGAPIIWFFENCELTTTDLRRTLVQMKLAGWFDHCSGIMFGRSPTNTPVEDYTVDDVFRDLYEELKVPLMTDIDCGHVPPQLTLINGAYAEVKLNDGKGIVTQFFKE,not soluble
17,DSDLYAELRCLCIKTTSGIHPKNIQSLEVIGKGTHCNQVEVIATLKDGRKICLDPDAPRIKKIVQKKLAGDESAD,soluble
18,MSEKLVLSSGKCFLHEVLCRREEKEYRQNRANLRRGADTTTEVYAFPYVYPQLPQEATTQERLVLMRVAALAAEFGNIPAVGSDTPAKSLGRWAYEVSRQRMLDRQQQVAFNPKKLDVVGERLAYLHTQDFEEAVRAVSRLMSIASSLSNVPAFDYIALYSLFSYWGNGISEKSQRVRMRVLQDYYGSFGSLIE,not soluble
19,MAHHHHHHMTGLIAPHAGMSYSGRTAAEAFAVFREYLYAKGSKGSELERIFILGPSHTRGFEGCELSAASAYETPFGPLRVDTAVVDRVITDLRKAGVGAATASRRTDEAEHSIEMETPYLSHILHYPPTTTGAPVQPAAGRVAIVPIIVGWTNRQDEKAICDVLKPYMDDARNFFICSSDFCHWGERFSYTYHYKRSEYPNIGDSIIAMDHAAMELLEKRDLERWYAYLQMTKNTICGRAPISIGMQRWASKGNKARVKFVHYSQSNKCKDADDSSVSYAAAIIME,soluble
20,MGIRVKRRQHQHLLESLVHSTAKQQGDFTKTAELATELLCQNLAVSLVSIWIFSADQGTQSLVAQFGSMALQDTYRPSLLHTVPRYLNELKNYRHIDAGNTLIDPRLTELVDSYFIPRQILSSLDVGIRINGHLEGVLCIERAQVTHHWHDSEIHLACQMADQLALTLATKHAYDKEERLSLFRCAIEQSRQMSMLEHHHHHH,soluble
21,SNAMKLTPNYYRDRVCLNVLAGSKDNARAIYQAAEGHVLVGVLSKNYPDVDSAVKDMREYAALIDNALSVGLGAGDPRQSVMVSQISQQVQPQHVNQVFTGVGASRALLGQHDTVVNGLISPTGKVGYVKISTGPLSSQQKDAIVPVTTAIAMLKDMGGSSVKFFPMNGLDSIDEYRFVAEACAATGFWLEPTGGIDLDNFEQIVQIALDAGVTKVIPHIYSSIIDSKTGNTRPEDVKTLLDIVKKIVQ,soluble
